Data taken from patent publication US12448429B2, “T cell receptors specific to b-cell maturation antigen for treatment of cancer” (Dana-Farber Cancer Institute, Inc., priority 2019, dated 2025).

Columns and labels:
HLA-A2 [1] = molecular target: T1, HLA-A2 (Homo sapiens, UniProt P04439, D140Y/D185E/D98H/E176V/E277Q/G131W/G231S/I119V/I121R/I166T/I218V/L300P/L318F/N151K/N90K/P208A/P217A/Q86G/Q94H/R138H/R169H/T345S); experiment: HLA-A2 binding affinity of BCMA peptides on T2 cells (HLA-A2 up-regulation, MFI by flow cytometry); details: for HLA-A2 binding affinity among the six native peptides: dose-dependent, Example 12; for HLA-A2 specificity (HLA-A2 binding capacity, MFI): six native BCMA peptides compared, T2 cells pulsed overnight with 0-200 μg/ml peptide, FIG. 2; for change of HLA-A2 binding affinity of heteroclitic peptide compared to its native peptide: T2 cells, FIG. 3, Example 12: n=3, p<0.05
T1 construct: endogenous in cells; host or cells: T2 cell line (human B and T cell hybrid), provided by Dr. J. Molldrem
Description: The listed BCMA peptides were evaluated for HLA-A2-specific binding capacity using the T2 cell line. In the assay, T2 cells were washed, resuspended in serum-free AIM-V medium to a final concentration of 1×10^6 cells/ml and transferred into wells of a 24-well tissue culture plate. The cells were pulsed with different concentrations of respective BCMA peptide (0-200 μg/ml) plus 3 μg/ml human […] (Sigma) and incubated at 37° C., 5% CO2 in humidified air. Following overnight incubation, the cells were washed, stained with mouse anti-human HLA-A2-FITC mAb for 15 minutes at 4° C., washed and analyzed using a FACSort™ flow cytometer with CellQuest™ v2.1 software (Becton Dickinson, San Jose, Calif.). […] Among the BCMA peptides evaluated, “#4. […] (FIG. 2).
(§1) The native and heteroclitic BCMA peptides were examined for HLA-A2 binding stability using the T2 cell line. T2 cells were pulsed with the respective peptide. After overnight incubation, the cells were washed to remove unbound peptide; they were evaluated for binding affinity as shown above and stability as following. The cells were incubated with 10 μg/ml Brefeldin A (Sigma) at 37° C. and 5% CO2 for 1 hour to block cell surface expression of newly synthesized HLA-A2 molecules. Peptide/HLA-A2 binding stability was evaluated at 0, 2, 4, 6 and 18 hours post-Brefeldin A treatment. Following the incubation period, the cells were harvested, washed, stained with mouse anti-human HLA-A2-FITC mAb and analyzed by flow cytometry. […] Therefore, the Heteroclitic #4 BCMA72-80 (YLMFLLRKI (SEQ ID NO: 37)) peptide was selected for further evaluation of its immunogenic potential to generate MM-specific cytotoxic T cells (CTLs).
(§2) T2 cells were pulsed overnight with various doses of peptide plus β2-microglobulin (3 μg/ml) (Sigma, St Louis, Mo.). Following overnight incubation, the cells were stained with HLA-A2-PE mAb and analyzed using a FACSCanto™ flow cytometer (BD). Peptide/HLA-A2 complex stability was measured on peptide loaded T2 cells at 0, 2, 4, 6 and 14 hours post-brefeldin A treatment by staining with HLA-A2-PE mAb and flow cytometric analysis.

HLA-A2 [2] = molecular target: T1, HLA-A2; experiment: Peptide/HLA-A2 binding stability on peptide-pulsed T2 cells after Brefeldin A treatment; details: for HLA-A2 stability (and affinity) of heteroclitic peptides: 0, 2, 4, 6 and 14 hours post-brefeldin A, compared with native peptides and HIV-Gag77-85 positive control
Description: as §1, §2

[3] = listed as heteroclitic BCMA72-80

Row | Sequence | HLA-A2 binding affinity among the six native peptides (HLA-A2 [1]) | HLA-A2 specificity (HLA-A2 binding capacity, MFI) (HLA-A2 [1]) | change of HLA-A2 binding affinity of heteroclitic peptide compared to its native peptide (HLA-A2 [1]) | also measured
1 | AILWTCLGL [#5. BCMA54-62] | highest HLA-A2 binding affinity | second highest level |  | 
2 | VLMFLLRKI [#4. BCMA72-80] | highest HLA-A2 binding affinity | highest level of HLA-A2 specificity |  | 
3 | YILWTCLGL [Heteroclitic #5 BCMA54-62] |  |  | increased from their native peptide | HLA-A2 stability (and affinity) of heteroclitic peptides (HLA-A2 [2]): further enhanced; change of HLA-A2 binding affinity of heteroclitic peptide compared to its native peptide (HLA-A2 [1]; listed as heteroclitic hBCMA54-62): highest increase in HLA-A2 binding affinity
4 | YLMFLLRKI [Heteroclitic #4 BCMA72-80] |  |  | increased from their native peptide | HLA-A2 stability (and affinity) of heteroclitic peptides (HLA-A2 [2]; listed as BCMA72-80 (YLMFLLRKI (SEQ ID NO: 37))): highest level of HLA-A2 affinity and stability; HLA-A2 stability (and affinity) of heteroclitic peptides (HLA-A2 [2]; [3]): further enhanced; HLA-A2 binding stability compared to the native peptide (HLA-A2 [2]; 0, 2, 4, 6 and 18 hours post-Brefeldin A, 50 ug/ml, FIG. 4): significant improvement; change of HLA-A2 binding affinity of heteroclitic peptide compared to its native peptide (HLA-A2 [1]; [3]): highest increase in HLA-A2 binding affinity
5 | YQNEYFDSL [heteroclite BCMA9-17] |  |  | did not alter its HLA-A2 affinity status | 
